Laboratory results: the RNAGym collection of RNA variant scans (doi:10.7554/elife.80360)

B1: HDV Ribozyme (parent)
chain: GGCCGGCAUGGUCCCAGCCUCCUCGCUGGCGCCGGCUGGGCAACAUUCCGAGGGGACCGUCCCCUCGGUAAUGGCGAAUGGGACCCA

Variants of: B1
Experiment: self-cleavage, relative activity (ratio to wild type); higher = more cleavage; co-transcriptional

Variant | self-cleavage
G2A C19G | 0
C36U C85A | 0.732
G52A C75A | 0.166
G5U G25A | 0.0346
G25U C49G | 0
C41G C44G | 0.158
C22U A56C | 0.525
G74C U79A | 0.189
G29A G35U | 0.101
A8G C64A | 0.764
G6A C61A | 0.695
C49A G53C | 0.506
C64G G68A | 0.338
G17C U27A | 0.222
U9C G53U | 1.26
G1A U20G | 0
A8U G59A | 0.79
U9C A71C | 0.791
U20G A56C | 0.196
A45C G73C | 0.424
G6C U79C | 0.0405
G35A G67C | 0.564
G11A A16C | 0.35
C66A A78U | 0.198

Variant | self-cleavage
C21U | 0.251
G2U C66U | 0.0895
C64A G82U | 0.409
C75G G76U | 0.237
A8C U65A | 0.76
C48A C86A | 0.831
G5C C22U | 0.151
U12C C75G | 0.166
G10U C44G | 0.296
A8U G52A | 0.692
C44U U65A | 0.846
C36U C44A | 0.166
C21A G52C | 0.125
C4A C30A | 0.0519
G1A G73C | 0.0739
G29U C86G | 0.0346
U20C C24U | 0.0475
A51G U79G | 0.831
G25A A78C | 0.0302
G28U G82U | 0.0468
C18A C66U | 0.0779
G1U C85U | 0.321
C61U C75U | 0.254
G50U C66U | 1.09

Variant | self-cleavage
G1C G52U | 0.219
G6A C58U | 0.702
C63A U72A | 0.542
U37C G73A | 0.493
C3U U27G | 0.723
C30G A71C | 0.0554
G28U C30G | 0.0886
U46G G82U | 0.229
A51C G52U | 0.601
C26U C57U | 1.05
U27A C84U | 0.795
G6A U65A | 0.54
G17C G82U | 0
C21U C58A | 0.136
C18U G25C | 0.201
G34A C84G | 0.104
U60C U72G | 0.767
G31U C33A | 0.0231
G11A U12C | 0.0415
C18U A45C | 0.0755
G1A G35A | 0.101
A45G G55U | 0.888
C3U G28A | 0.0294
G35C C44A | 0.0573

Variant | self-cleavage
A45G G73C | 0.388
C58A G59A | 1.1
G40A U79G | 0.755
C64A C84A | 1.15
U9G C19G | 0
G31U C84A | 0.146
A16C A56C | 0.639
G28A A45U | 0.128
G6C G53A | 0.233
C33G U65A | 0.156
U23G G31U | 0.0639
G2A G54C | 0.296
C19G A45U | 0.0396
A51G G81A | 0.285
G34C G80U | 0.203
G1A U47G | 0
G11A C61A | 0.379
G38C A45G | 0.227
G2C C58G | 0.13
C57A G73U | 0.322
G5A C62U | 0.16
U20G G38A | 0.0573
U46G A51C | 0.755
C13G G54A | 0.0604

Variant | self-cleavage
G6A A87C | 0.635
A16C G40U | 0.73
C18A A56C | 0.0573
C57U G82U | 0.234
C24G C57A | 0.0432
C26A C66G | 1.15
C49A A87U | 0.857
G17U U65C | 0.332
G25A G39C | 0.0332
C7U C44A | 0.403
U27C A51G | 0.914
G2C G31C | 0.0237
C32U C84U | 0.763
A77U U79A | 0.32
C19G G29A | 0.0378
G5U A83C | 0
U47G G67A | 0.831
U20G G55C | 0.0978
G28A G82U | 0.138
A16U C18U | 0.427
G39A G53A | 0.632
G59C U69G | 1.11
U46A | 0.794
C62U A77U | 0.429

Variant | self-cleavage
G11U | 0.366
C24G G82C | 0
C49U C75G | 0.0723
U23G G80C | 0.147
C3A A83U | 0.0821
A45G G76C | 1.07
G34A A70C | 0.0941
G39A C66G | 0.437
C41U C49U | 0.749
C3G G31A | 0.0608
G39U C62U | 0.918
G54C C66G | 0.591
C15A A83U | 0.0639
C32A C41A | 0.089
C22G G28C | 0
G34A G67A | 0.104
G29U A87U | 0.111
G25C G76U | 0.0852
U12A A51U | 0.277
C21U C75G | 0.151
C4G G29C | 0
G6A C48U | 0.759
A16U U60A | 0.587
G1A C85G | 0.101

Variant | self-cleavage
G6C C48G | 0.199
G25C C49G | 0.0594
A78C C85A | 0.277
C21U C48G | 0.181
U20G G73U | 0.136
G50U A71C | 0.435
C18G G29U | 0.601
U27A A45G | 0.745
G40A C64G | 0.531
C26A G39A | 0.234
G10A C61G | 0.844
C41A G52C | 0.928
C3A A8G | 0.578
G50C C84U | 0.554
U23A G82U | 0.425
C30G A77G | 0.189
G2C C84A | 0.0462
A43G G53C | 0.554
C21U C61G | 0.277
G6C G17A | 0
U20C C22U | 0.125
U23A A42G | 0.499
C3A C30U | 0.143
C33G G76A | 0.185

Variant | self-cleavage
C18G G68U | 0.0978
G17A C86G | 0.591
G38U G40A | 0.222
A16C U46A | 0.262
U37A C41A | 0.237
G11C U27A | 0.646
C66A G67U | 0.878
G31A C36G | 0.233
U27A C86G | 0.918
G68U A78U | 0.237
C75A A77U | 0.119
A42U A51U | 0.509
G5A G29A | 0.155
A16U G81C | 0.342
U47C G52A | 0.853
C18G A51U | 0.0489
A56G U60A | 0.914
C75U A77C | 0.208
G1C A71C | 0.256
G40U U60A | 0.795
C19U U72C | 0.0354
C41G G74C | 0.119
C33A U46A | 0.128
G39U U79C | 0.155

Variant | self-cleavage
A8G C14U | 0.997
A8U U69G | 0.59
C24A C48U | 0.799
U69C C75A | 0.0536
G2A G39U | 0.0305
C62G G67C | 0.147
C66A U72A | 0.608
C21U G67C | 0.205
C24A C58U | 0.742
G5U C19A | 0.256
C22U G54C | 0.641
C4G C22A | 0.142
U27G G81C | 0.277
C13U U60G | 0.831
G1A C24U | 0.111
C48A G73C | 0.618
C64U C84G | 0.869
G11C G39A | 0.264
A51U G81U | 0.282
U37C U72A | 0.356
C30A C62U | 0.423
G39A C49U | 0.519
G11U U69A | 0.317
A16U C49G | 0.91

Variant | self-cleavage
C24G U79A | 0.0898
G6U G10A | 0.185
C7A | 0.644
G68U G73A | 0.481
G39U U47G | 0.323
U27G C36A | 0.0639
U23C G40A | 0.8
G76C A78C | 0.192
A56C C84A | 0.95
G40U C48U | 0.628
G1U U46C | 0.277
A78G A87C | 0.452
G38A A83U | 0.13
G28A G52A | 0.0764
U37C C61U | 0.884
A45G C64U | 0.889
A45G C64G | 0.591
U20G G31U | 0.102
A16U G17U | 0.589
C61A C66G | 0.942
U9C A51G | 0.962
G6A A70U | 0.399
C30U C48A | 0.739
G6A C62G | 0.441

Variant | self-cleavage
U12G C36U | 0.415
U20A G34U | 0
U60A C61U | 1.15
C30A G67A | 0.623
G17C C48G | 0.252
U12A G67U | 0.256
C22A C64G | 0.302
C13A C63U | 0.0627
C3U G40A | 0.857
U46G C64G | 0.525
G31U G55U | 0.324
C15G A45G | 0.665
G1U G74U | 0.358
A42U C58U | 0.271
G11U C33U | 0.0997
G5A A43C | 0.0594
C48U U79C | 0.45
G29A C32A | 0.0222
U46G G76A | 0.911
G5U C44A | 0.119
U47C G82U | 0.111
U27A C57U | 1.01
G10U U47C | 0.499
A51C G67A | 0.77

Variant | self-cleavage
C13U C14U | 0.308
G54A G76A | 0.923
C36U C58A | 0.964
C13A C66U | 0.125
U9G A16C | 0.712
C18G | 0.131
C24U C64U | 0.511
C3G U46A | 0.253
C15A C19A | 0.147
G28U C62U | 0.205
C44G C57U | 0.745
C41A A43C | 0.872
U23A G67C | 1.22
U60A C84U | 0.793
G6A G74U | 0.104
C22G A77U | 0.162
U20G G76C | 0.35
G17A C36U | 0.272
G2C G73A | 0.0252
C18A A83U | 0.237
C61U C85A | 1.07
C4A U12G | 0.0536
G10C U69G | 0.997
C62A G76A | 1.13

Variant | self-cleavage
C62U G82U | 0.402
C63U A70U | 0.848
U20G U69C | 0.185
U12G G76A | 0.917
C48A A71G | 0.791
C13G U47C | 0
C13G U79G | 0.0755
G11C U79A | 0.0723
C13U A42G | 0.0755
U65C A87U | 1.08
G54C C85G | 0.724
G73U C84G | 0.329
G2C G10U | 0.056
G17U U46A | 0.111
G10A G68A | 0.604
C44G G54U | 0.609
G34C A87C | 0.224
A83G C86U | 1.08
C32A G39C | 0.166
G11A G73U | 0.0769
A51G A87U | 0.952
C3U G38A | 0.0811
U20C G82U | 0.0449
G38U G52A | 0.305

Variant | self-cleavage
U46C C62U | 0.918
U20C U65C | 0.401
G10C U37G | 0.262
G10A C62A | 0.673
C57G C86G | 0.831
C24A G55C | 0.818
C32U G38A | 0.216
G25A C75G | 0.102
C4A U47A | 0.156
G2C C44U | 0.0453
U12C A16G | 0
U12G C19U | 0.0378
G35U G54U | 0.448
A71C U79A | 0.529
G10C A16C | 0.88
C15G G80A | 0.635
G10U C49U | 0.955
C84U C85A | 0.877
C49A U72G | 0.443
G1C G74A | 0.0678
U12G G25C | 0.119
G50A U72C | 0.45
